In article PMC4678481, “Structural insights into the mechanism defining substrate affinity in Arabidopsis thaliana dUTPase: the role of tryptophan 93 in ligand orientation” (BMC Research Notes, 2015):

Substrate: O=c1ccn([C@H]2C[C@H](O)[C@@H](COP(=O)(O)OP(=O)(O)OP(=O)(O)O)O2)c(=O)[nH]1
Experiment: purified protein
Format: biochemical, Arabidopsis thaliana
Settings: pH 7.6, 25 °C, 5 mM MgCl2, 100 mM KCl, 0.25 mM bicine, 50 nM enzyme

B1: Arabidopsis dUTPase (Arabidopsis thaliana) (protein)
chain: MACVNEPSPKLQKLDRNGIHGDSSPSPFFKVKKLSEKAVIPTRGSPLSAGYDLSSAVDSKVPARGKALIPTDLSIAVPEGTYARIAPRSGLAWKHSIDVGAGVIDADYRGPVGVILFNHSDADFEVKFGDRIAQLIIEKIVTPDVVEVDDLDETVRGDGGFGSTGV
notes: full length, 166 residues; His tag removed by thrombin, extra Gly-Ser-His at N-terminus; expressed in E. coli JM103 (DE3); homotrimer
Km: 0.4 ± 0.1 µM
